Assay [1] addresses mumps postfusion F glycoprotein trimer (unstabilized 476-GCN4) (mumps virus). In words: negative-stain EM; purified glycoprotein designs alone, 2D class averages.
Assay [2] concerns the target prefusion-stabilized mumps fusion (F) glycoprotein trimer, genotype G (V206C-A223C with 476-GCN4 and 101KRF-101GGG) (mumps virus, genotype G). The description is as above.
The target is the same in assay [3]. In words: crystal structure.

For “mumps postfusion F glycoprotein trimer (unstabilized 476-GCN4)”, the stoichiometry N in assay [1] worked out at 3.

On to “prefusion-stabilized mumps fusion (F) glycoprotein trimer, genotype G (V206C-A223C with 476-GCN4 and 101KRF-101GGG)”, for which the stoichiometry N in assay [2] and in assay [3] was 3 each time.

Broadly, the stoichiometry N is a count of units in the complex or per binding partner.

(Values after paper PMC11588112.)
